In US20240132578A1 one finds Primary Neutralization Index (B cell culture supernatant), IC50 (µg/mL), pseudovirus neutralization and IC50 (µg/mL), neutralization of pseudovirus data, which are given here for five molecules.

“And” between values parts separate entries of the source, which are not always exact repeats. Equal values may be shown once.

Holding throughout (experiment): cell-based or functional assay
In assay [1] the target is HIV-1 Env of pseudovirus 94UG103 (HIV-1).
Assay [2] deals with HIV-1 Env of pseudovirus 92BR020 (HIV-1).
Assay [3] concerns the target HIV-1 Env of pseudovirus MGRM-C-26 (HIV-1).
Assay [4] concerns the target HIV-1 Env of pseudovirus JRCSF (HIV-1) (UniProt P20871).
Assay [5] has as its target HIV-1 Env of pseudovirus 93IN905 (HIV-1).
Assay [6] concerns the target HIV-1 Env of isolate MGRM-C-004 (subtype C) (HIV-1).
The target in assay [7] is HIV-1 Env of isolate MGRM-C-001 (subtype C) (HIV-1).
Assay [8] has as its target HIV-1 Env of isolate MGRM-C-010 (subtype C) (HIV-1).
Assay [9] deals with HIV-1 Env of isolate MGRM-G-011 (subtype G), on pseudovirus (HIV-1).
Assay [10] concerns the target HIV-1 Env of isolate MGRM-C-020 (subtype C) (HIV-1).
Assay [11] addresses HIV-1 Env of isolate MGRM-G-025 (subtype G), on pseudovirus (HIV-1).
The target of assay [12] is HIV-1 Env of isolate MGRM-C-023 (subtype C) (HIV-1).
In assay [13] the target is HIV-1 Env of isolate MGRM-G-016 (subtype G), on pseudovirus (HIV-1).
Assay [14] has as its target HIV-1 Env of isolate MGRM-G-006 (subtype G), on pseudovirus (HIV-1).
In assay [15] the target is HIV-1 Env of isolate MGRM-C-026 (subtype C) (HIV-1).
Assay [16] deals with HIV-1 Env of isolate MGRM-G-004 (subtype G), on pseudovirus (HIV-1).
The target in assay [17] is HIV-1 Env of isolate MGRM-C-017 (subtype C) (HIV-1).
Assay [18] deals with HIV-1 Env of isolate MGRM-G-017 (subtype G), on pseudovirus (HIV-1).
Assay [19] has as its target HIV-1 Env of isolate MGRM-C-009 (subtype C) (HIV-1).
Assay [20] has as its target HIV-1 Env of isolate MGRM-G-014 (subtype G), on pseudovirus (HIV-1).
The target in assay [21] is HIV-1 Env of isolate MGRM-C-002 (subtype C) (HIV-1).
The target of assay [22] is HIV-1 Env of isolate MGRM-C-028 (subtype C) (HIV-1).
Assay [23] has as its target HIV-1 Env of isolate MGRM-C-027 (subtype C) (HIV-1).
The target of assay [24] is HIV-1 Env of isolate MGRM-G-019 (subtype G), on pseudovirus (HIV-1).
Assay [25] deals with HIV-1 Env of isolate 93MW959 (subtype C) (HIV-1).
Assay [26] addresses HIV-1 Env of isolate MGRM-C-006 (subtype C) (HIV-1).
Assay [27] addresses HIV-1 Env of isolate MGRM-C-015 (subtype C) (HIV-1).
Assay [28] deals with HIV-1 Env of isolate MGRM-G-028 (subtype G), on pseudovirus (HIV-1).
The target of assay [29] is HIV-1 Env of isolate 97ZA012 (subtype C) (HIV-1).
Assay [30] deals with HIV-1 Env of isolate 98IN022 (subtype C) (HIV-1).
In assay [31] the target is HIV-1 Env of isolate MGRM-G-027 (subtype G), on pseudovirus (HIV-1).
The target in assay [32] is HIV-1 Env of isolate MGRM-C-019 (subtype C) (HIV-1).
Assay [33] has as its target HIV-1 Env of isolate MGRM-G-024 (subtype G), on pseudovirus (HIV-1).
For assay [34], the target named is HIV-1 Env of isolate MGRM-C-022 (subtype C) (HIV-1).
Assay [35] deals with HIV-1 Env of isolate MGRM-C-005 (subtype C) (HIV-1).
Assay [36] deals with HIV-1 Env of isolate MGRM-C-013 (subtype C) (HIV-1).
Assay [37] deals with HIV-1 Env of isolate MGRM-C-024 (subtype C) (HIV-1).
For assay [38], the target named is HIV-1 Env of isolate MGRM-C-014 (subtype C) (HIV-1).
Assay [39] addresses HIV-1 Env of isolate MGRM-C-012 (subtype C) (HIV-1).
Assay [40] concerns the target HIV-1 Env of isolate MGRM-C-025 (subtype C) (HIV-1).
Assay [41] concerns the target HIV-1 Env of isolate MGRM-C-008 (subtype C) (HIV-1).
The target in assay [42] is HIV-1 Env of isolate MGRM-G-015 (subtype G), on pseudovirus (HIV-1).
In assay [43] the target is aMLV envelope, on pseudovirus (negative control).
The target in assay [44] is HIV-1 Env of isolate MGRM-G-001 (subtype G), on pseudovirus (HIV-1).
Assay [45] concerns the target HIV-1 Env of isolate MGRM-G-013 (subtype G), on pseudovirus (HIV-1).
The target of assay [46] is HIV-1 Env of isolate MGRM-G-009 (subtype G), on pseudovirus (HIV-1).
The target of assay [47] is HIV-1 Env of isolate MGRM-C-007 (subtype C) (HIV-1).

B1: PGT-123 (B cell culture well 4858_P8) (antibody, V domains shown)
VH: QLHLQESGPGLVKPPETLSLTCSVSGASINDAYWSWIRQSPGKRPEWVGYVHHSGDTNYNPSLKRRVTFSLDTAKNEVSLKLVDLTAADSATYFCARALHGKRIYGIVALGELFTYFYMDVWGKGTAVTVSS
VL: SSMSVSPGETAKISCGKESIGSRAVQWYQQKPGQPPSLIIYNNQDRPAGVPERFSASPDFRPGTTATLTITNVDAEDEADYYCHIYDARGGTNWVFDRGTTLTVL
Consider B1, for which the Primary Neutralization Index (B cell culture supernatant) in assay [1] stood at 1.1; in [2], 2.8; in assay [3] it was 33.8; in assay [4], 1.6.

B2: Antibody of B cell culture well 4869_K15 (antibody, V domains shown)
VH: QVHLQESGPGLVTPSETLSLTCTVSNGSVSGRFWSWIRQSPGRGLEWIGYFSDTDRSEYNPSLRSRLTLSVDRSKNQLSLRLKSVTAADSATYYCARAQQGKRIYGIVSFGEFFYYYYMDAWGKGTPVTVSS
VL: SLNPLSLAPGATAKIPCGERSRGSRAVQWYQQKPGQAPTLIIYNNQDRPAGVSERFSGNPDVAIGVTATLTISRVEVGDEADYYCHYWDSRSPISWIFGGGTQLTVL
For the molecule B2, the Primary Neutralization Index (B cell culture supernatant) turned out to be 1.5 in assay [1], 3.9 in assay [2], 104 in assay [3] and 2.1 in [4].

B3: PGT-137 (B cell culture well 5345_I1) (antibody, V domains shown)
VH: EVHLEESGPGLVRPSETLSLTCTASGGSIRGGEWGDSDYHWGWVRHSPEKGLEWIGSIHWRGTTHYNAPFRGRGRLSIDLSRNQFSLRLTSVTAEDTAVYYCVKHKYHDIVMVVPIAGWFDPWGQGLQVTVSS
VL: EIMMTQSPAILSVSPGDRATLSCRASQSVKNNLAWYQKRPGQAPRLLIFDTSSRASGIPARFSGGGSGTEFTLTVNSMQSEDFATYYCQQYEEWPRTFGQGTKVEIK
As to B3, the figures for the Primary Neutralization Index (B cell culture supernatant) in assay [5], in assay [3] and in assay [4] were 3.3, 11.3 and 1.1, respectively.

B4: PGT-127 (antibody, V domains shown)
VH: QPQLQESGPGLVEASETLSLTCTVSGDSTGRCNYFWGWVRQPPGKGLEWIGSLSHCRSYYNTDWTYHNPSLKSRLTISLDTPKNQVFLRLTSVTAADTATYYCARFGGEVLVYRDWPKPAWVDLWGRGTLVVTVS
VL: QSALTQPPSASGSPGQSITISCTGTSNNFVSWYQQYPGKAPKLVIYEVNKRPSGVPDRFSGSKSGSTASLTVSGLQADDEGVYYCSSLVGNWDVIFGGGTKLTVL
On to B4, for which the IC50 (µg/mL), pseudovirus neutralization in assay [6] was 0.532 µg/mL; in assay [7] it was over 50 µg/mL; in [8] it was over 50 µg/mL; in assay [10], over 50 µg/mL; in [12] it was 1.08 µg/mL; in [15], 0.014 µg/mL. Moreover, the IC50 (µg/mL), pseudovirus neutralization in assay [17] is 3.4 µg/mL; in assay [19], over 50 µg/mL; in [21] it was 0.057 µg/mL; in [22], 7.57 µg/mL; in assay [23], over 50 µg/mL; in [25], 6.95 µg/mL. Also, the IC50 (µg/mL), pseudovirus neutralization in [26] was 0.319 µg/mL; in assay [27], over 50 µg/mL; in [29], over 50 µg/mL; in assay [30], 19.2 µg/mL; in assay [32], 0.017 µg/mL; in assay [34] it was 0.41 µg/mL. In addition, the IC50 (µg/mL), pseudovirus neutralization in [35] was 0.57 µg/mL; in assay [36] it was over 50 µg/mL; in assay [37], over 50 µg/mL; in assay [38], over 50 µg/mL; in assay [39], 1.07 µg/mL; in [40] it was over 50 µg/mL. For the same molecule, the IC50 (µg/mL), pseudovirus neutralization in assay [41] and in [47] was over 50 µg/mL in each case. Also, the IC50 (µg/mL), neutralization of pseudovirus was over 50 µg/mL in assay [9]; 19.3 µg/mL in [11]; over 50 µg/mL in assay [13]; over 50 µg/mL in [14]; over 50 µg/mL in [16]; over 50 µg/mL in assay [18]. Besides, the IC50 (µg/mL), neutralization of pseudovirus was 0.009 µg/mL in assay [20]; 0.429 µg/mL in [24]; 0.032 µg/mL in [28]; over 50 µg/mL in assay [31]; over 50 µg/mL in [33]; over 50 µg/mL in assay [42]. Also, the IC50 (µg/mL), neutralization of pseudovirus was over 50 µg/mL in assay [43], 0.113 µg/mL in assay [44], 7.7 µg/mL in assay [45] and over 50 µg/mL in assay [46].

B5: PGT-136 (B cell culture wells 5366_P21 and 5329_C19) (antibody, V domains shown)
VH: QLQLQESGPGLVKPSETLSLTCTVSGGSMRGTDWGENDFHYGWIRQSSAKGLEWIGSIHWRGRTTHYKTSFRSRATLSIDTSNNRFSLTFSFVTAADTAVYYCARHKYHDIFRVVPVAGWFDPWGQGLLVTVSS
VL: EIVMTQSPPTLSVSPGETATLSCRASQNVKNNLAWYQLKPGQAPRLLIFDASSRAGGIPDRFSGSGYGTDFTLTVNSVQSEDFGDYFCQQYEEWPRTFGQGTKVDIK
Take B5: the Primary Neutralization Index (B cell culture supernatant) in assay [5] was 5.5 and 5.6; in [3] it was 6.2 and 6; in [4], 1.1 and 0.9.
